Biological target: Momordica charantia 7S globulin (Momordica charantia)
Test: SEC; HiLoad 16/60 Superdex 200 pg, 50 mM Tris pH 7.4 with 150 mM NaCl, 0.5 ml/min; peak at ~69.2 ml, mass estimated from a calibration with high molecular weight standards

stoichiometry N: 3
Substance: Momordica charantia 7S globulin (natural protein)
